Laboratory results published in US20030228627, “Assay for p53 function in cells” (published 2003).

B1: p21 promoter p53 5' site 25 bp oligonucleotide (dsDNA)
DNA 1: CAGGAACATGTCCCAACATGTTGAA
DNA 2: TTCAACATGTTGGGACATGTTCCTG
B2: p21 promoter p53 3' site (dsDNA)
DNA 1: AGACTGGGCATGTCTGGGCA
DNA 2: TGCCCAGACATGCCCAGTCT

Legend:
[1] = target: T1, p53 (full-length, Flag-tagged) (Homo sapiens, UniProt P04637 P04637:1-393); experiment: EMSA; p53 with or without acetylation by p300; site described as p53 5' binding site, gel outcome not shown in the text; conditions: tags: Flag, expressed in Sf9 cells; label: 32P end label
[2] = target: T1, p53 (full-length, Flag-tagged); experiment: footprint; DNase I footprinting on p21 promoter as chromatin or naked DNA; described as p53 3' binding site, outcome not shown in the text; conditions: tags: Flag, expressed in Sf9 cells

Binder	binding result [1]	binding result [2]
B1	binds	
B2		binds
